# From patent US20190071490A1 (BETH ISRAEL DEACONESS MEDICAL CENTER, published 2019)
# Where a chain is given by its changes, count along the chain named. Numbers in names are those of the source.
# T1: human α-CGRP 1-37 (WT) (human, C-terminal amide; N-terminal biotin when captured on the SA chip; 125I-labelled in the radioligand assay)
# T1 construct: also called α-human
# T1 peptide: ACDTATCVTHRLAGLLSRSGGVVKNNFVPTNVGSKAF
# T2: rat α-CGRP (1-37) (rat, C-terminal amide; N-terminal biotin when captured on the SA chip)
# T2 construct: also called rat α (1-37); α-rat
# T2 peptide: T1 peptide with A1S, D3N, N25D, K35E
# B1: G1 variant M51 Fab (Fab, V domains shown)
# VH: EVQLVESGGGLVQPGGSLRLSCAASGFTFSNYWISWVRQAPGKGLEWVAEIRSKSDGSATHYAEAVKGRFTISRDNAKNSLYLQMNSLRAEDTAVYYCTVYFDYGLAIQNYWGQGTLVTVSS
# VL: EIVLTQSPATLSLSPGERATLSCKASKNVTTYVSWYQQKPGQAPRLLIYGASNRYIGIPARFSGSGSGTDFTLTISSLEPEDFAVYYCSQSYNYPYTFGQGTKLEIK
# notes: Fab; constant domains as m1; printed L561 read as L56I
# B2: G1 variant M58 Fab (Fab, V domains shown)
# VH: B1 VH with G57N, S58I, H61F
# VL: B1 VL with T30D, I56S
# notes: Fab; constant domains as m1
# B3: G1 variant M57 Fab (Fab, V domains shown)
# VH: B1 VH with G57N, S58E
# VL: B1 VL with T30D, I56S
# notes: Fab; constant domains as m1
# B4: G1 variant M56 Fab (Fab, V domains shown)
# VH: B1 VH with G57N, H61F
# VL: B1 VL with T30D, I56S
# notes: Fab; constant domains as m1
# B5: G1 variant M54 Fab (Fab, V domains shown)
# VH: B1 VH with G57N, S58P
# VL: B1 VL with T30A, G50A, I56L
# notes: Fab; constant domains as m1
# B6: G1 variant M62 Fab (Fab, V domains shown)
# VH: B1 VH with G57N, S58E
# VL: B1 VL with T30G, A51H, I56T
# notes: Fab; constant domains as m1
# B7: G1 variant M52 Fab (Fab, V domains shown)
# VH: B1 VH with G57N, S58A
# VL: B1 VL
# notes: as for B1
# B8: G1 variant M55 Fab (Fab, V domains shown)
# VH: B1 VH with G57N, S58E, E64D
# VL: B1 VL with T30A, I56S
# notes: Fab; constant domains as m1
# B9: G1 variant M59 Fab (Fab, V domains shown)
# VH: B1 VH with G57N, S58N, H61F
# VL: B1 VL with T30D, I56S
# notes: Fab; constant domains as m1
# B10: G1 variant M63 Fab (Fab, V domains shown)
# VH: B1 VH with G57N, S58T
# VL: B1 VL with T30G, G50A, I56L
# notes: Fab; constant domains as m1
# B11: G1 variant M64 Fab (Fab, V domains shown)
# VH: B1 VH with G57N, S58V
# VL: B1 VL with T30G, G50A, I56L
# notes: Fab; constant domains as m1
# B12: G1 variant M60 Fab (Fab, V domains shown)
# VH: B1 VH with G57N, S58R, H61F
# VL: B1 VL with T30D, I56S
# notes: Fab; constant domains as m1
# B13: G1 variant M53 Fab (Fab, V domains shown)
# VH: B1 VH with G57N, S58G
# VL: B1 VL
# notes: as for B1
# B14: G1 variant M61 Fab (Fab, V domains shown)
# VH: B1 VH with K54Q, G57N, H61F
# VL: B1 VL with T30G, A51H, I56L
# notes: Fab; constant domains as m1
# Target: T1, human α-CGRP 1-37 (WT)
# Assay: Biacore, 37°C, Fab over CGRP on SA chip
# Procedure: (§1) Biacore assay for affinity determination. […] All Biacore assays were conducted in HBS-EP running buffer (10 mM HEPES pH 7.4, 150 mM NaCl, 3 mM EDTA, 0.005% v/v polysorbate P20). CGRP surfaces were prepared by diluting the N-biotinylated CGRP to a concentration of less than 0.001 mg/mL into HBS-EP buffer and injecting it across the SA sensor chip using variable contact times. […] Samples were typically injected for 1 minute at 100 μL/min and dissociation times of at least 10 minutes were allowed. […] An entire titration series (typically generated in duplicate) was fit globally to a 1:1 Langmuir binding model using the BIAevaluation program. This returned a unique pair of association and dissociation kinetic rate constants (respectively, kₒₙ and koff) for each binding interaction, whose ratio gave the equilibrium dissociation constant (KD=koff/kₒₙ). […]
Binder,Kd [nM],koff [s⁻¹]
B1,0.82,0.000131
B2,12.2,0.00195
B3,3.08,0.000322
B4,2.99,0.000479
B5,11.2,0.00179
B6,5.86,0.000557
B7,1.76,0.000281
B8,2.99,0.000478
B9,3.28,0.000524
B10,9.38,0.0015
B11,8.25,0.00132
B12,5.69,0.000911
B13,2.34,0.000374
B14,2.87,0.000459

# Target: T2, rat α-CGRP (1-37)
# Assay: Biacore, 37°C, Fab over CGRP on SA chip
# Procedure: as §1
Binder,Kd [nM],koff [s⁻¹],binding result
B1,65.6,0.00118,–
B2,–,–,no binding
B3,1200,0.0104,–
B4,519,0.00935,–
B5,120,0.00216,–
B6,242,0.00575,–
B7,127,0.00229,–
B8,325,0.00585,–
B9,683,0.0123,–
B10,147,0.00265,–
B11,1300,0.0234,–
B12,1510,0.0272,–
B13,106,0.00191,–
B14,289,0.00521,–
